The source of these data is publication PMC10304930.

Assay [1] deals with authentic main protease (M^pro) from SARS-CoV, without tag (SARS-CoV) (UniProt P0C6X7). Put plainly: SEC; […]; 40 mM Tris-HCl, 100 mM NaCl, 1 mM DTT, pH 8.0; 0.5 mL/min; […]. (In gel filtration, larger molecules generally elute earlier.)
For assay [2] the target is unchanged.
Assay [3] deals with tagged main protease from SARS-CoV with 34 extra amino acids at the N-terminus (SARS-CoV) (UniProt P0C6X7).

For the substance “authentic main protease (M^pro) from SARS-CoV, without tag (from UniProt P0C6X7) (enzyme)”, the stoichiometry N (as a rule, a count of units in the complex or per binding partner) in assay [1] turned out to be 2. Moreover, the kcat/Km, FRET-based cleavage assay (Dabcyl/Edans peptide substrate) in assay [2] is 2790 M⁻¹ s⁻¹.

Turning to “tagged main protease from SARS-CoV with 34 extra amino acids at the N-terminus (from UniProt P0C6X7) (enzyme)”, in assay [3], the kcat/Km, FRET-based cleavage assay (Dabcyl/Edans peptide substrate) amounted to 17 M⁻¹ s⁻¹.
